Consider two substances from patent US20170035908A1.

The target of assay [1] is PAM4 antigen (pancreatic cancer mucin, CaPan1 human pancreatic tumor). The experiment in a line: ELISA on target mucin antigen (FIG. 9).
Assay [2] shares this target. The experiment in a line: TF10/111In-IMP-288 complex mixed with excess mucin, elution analysis.
For assay [3] the target is unchanged. As to the kind of experiment: radioiodinated TF10 mixed with mucin (not shown).
Assay [4] concerns the target IMP-288 di-HSG hapten-peptide, DOTA-D-Tyr-D-Lys(HSG)-D-Glu-D-Lys(HSG)-NH2. The experiment in a line: 111In-IMP-288 mixed with TF10, elution analysis (not shown).

Broadly, the EC50 is the concentration at which the effect is half-maximal. Low values mean an effect from little substance, high ones a need for much substance. Take PAM4-F(ab′)2: the EC50 in assay [1] is 1.83 nM.

As to “TF10 bispecific ([hPAM4]2 x h679) DNL construct (bispecific antibody)”, in assay [2], the percent of TF10-bound IMP-288 eluting at higher molecular weight with excess mucin was found to be 92%. In assay [1], this substance returned a half-maximal effective concentration (EC50) of 1.42 nM. Further, the immunoreactive fraction in assay [3] is 87%. The substance also returned a percent of peptide bound in assay [4] of 90%.
